The source of these data is patent publication US20110129470A1 (BOARD OF TRUSTEES OF THE UNIVERSITY OF ILLNOIS, published 2011).

This data set concerns the molecule itself. Description: X-ray crystal structure of human dCK.

Text: Crystals were transferred to a cryoprotectant solution that in the case of the citrate condition was made of mineral oil (Sigma) while for the crystals grown in PEG it was composed of the mother liquor and 10% (w/v) xylitol-10% (w/v) sucrose. Once the crystals were mounted in loops, they were frozen by directly immersing them in liquid nitrogen. X-ray data were collected at the Advanced Photon Source using the BioCARS beamlines BM-C and BM-D, and the SERCAT beamline ID-22.
Data for the MAD data set were collected to 2.3 Å resolution. A partially built model into the MAD electron density was used to solve the tetragonal crystals. The electron density for dCK extended to the last residue (Leu260), while the N-terminus (residues 1 to 19) was flexible and could not be modeled. […] The ligands were refined without conformational torsion-angle restraints in order to prevent bias towards a particular ring conformation for the sugars.

B1: Human deoxycytidine kinase (dCK), wild type (enzyme)
chain: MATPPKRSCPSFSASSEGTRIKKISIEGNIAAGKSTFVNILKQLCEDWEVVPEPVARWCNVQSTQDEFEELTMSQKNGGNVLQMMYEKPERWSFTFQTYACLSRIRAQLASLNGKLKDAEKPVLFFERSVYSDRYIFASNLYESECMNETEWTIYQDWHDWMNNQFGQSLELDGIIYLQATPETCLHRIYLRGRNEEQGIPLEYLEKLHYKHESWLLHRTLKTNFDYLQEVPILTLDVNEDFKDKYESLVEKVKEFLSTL
modifications: selenomethionine-substituted protein was used for the MAD phasing data set
notes: Recombinant protein from E. coli; the His-tag was cleaved by thrombin before crystallisation; Residues 1 to 19 were flexible and not modelled; It is a homodimer in the crystal structure; also called human dCK; WT dCK
With B1, the binding result is on record as “binds”.
